Publication PMC10995091, “Novel glycosidase from Paenibacillus lactis 154 hydrolyzing the 28-O-β-D-glucopyranosyl ester bond of oleanane-type saponins” (Applied Microbiology and Biotechnology, 2024)

Columns and labels:
[1] = substrate: O=[N+]([O-])c1ccc(O[C@@H]2O[C@H](CO)[C@@H](O)[C@H](O)[C@H]2O)cc1; experiment: purified protein; conditions: recombinant free enzyme; pH and temperature of the kinetic run not given
[2] = substrate: CC1(C)CC[C@]2(C(=O)O[C@@H]3O[C@H](CO)[C@@H](O)[C@H](O)[C@H]3O)CC[C@]3(C)C(=CC[C@@H]4[C@@]5(C)CC[C@H](O[C@@H]6O[C@H](C(=O)O)[C@@H](O)[C@H](O)[C@H]6O[C@@H]6O[C@H](CO)[C@@H](O)[C@H](O)[C@H]6O)C(C)(C)[C@@H]5CC[C@]43C)[C@@H]2C1; experiment: initial rate of ZR1 formation from Ro; assay type: biochemical, Paenibacillus lactis; conditions: recombinant free enzyme; pH and temperature of the kinetic run not given; hydrolysis of the C-28 glucosyl ester

B1: PlGH3 (Paenibacillus lactis; K755R/M754K) (protein)
chain: MRNHTLDTINKTEETVRYVQNPGGPTLGYSEESGVGIIEQDGLFFKDLSRDGKLDNYEDWRLTPEERAKDLASKMTVEQIAGLMLYSRHQSIPALSSGWFAGTYGGKTYEESGAKPWELTDEQIAFLTKDHVRHVLVTTVESPEVAARWNNKIQAFAEGTGLGIPANNSSDPRHASDSSSEFNAGAGGHISMWPETLGLAATFDPEITKKFGMIASREYRALGLATALSPQIDIATEPRWFRFNGTFGEDSKLAADMARAYVDGFQTSEGEREIADGWGYDSVNAMVKHWPGGGSGEAGRDAHYSCGKYAVYPGNNFDEHLVPFTEGAFKLDGKTGKASAVMPYYTISLGQDTVNGENVGNSYNSYLIRDLLRGKYGYDGVVCTDWMITADVSGPKDSFLSGKPWGVEDLTVGERHYKLQMAGVDQFGGNNEIEPVLEAYKIGVREHGEAYMRERFEQSAVRLLKNMFRLGLFENPYLDPQESATLVGNPEFMREGYEAQLKSIVMLKNKNGVLPLRAKSKVYIPKRFLPPGKDWFGNPTPESYDYPVNLEVVSKYFEVTDQPDEAEFGLVFITSPKSGTGYSQEDEERGGNGYVPISLQYKPYTAEHAREISLAGDEHGNEPRNRSYKGKTVIPHNTTDLNMVLETKEKMKGKPVIVSMLLCNPTVVSEFEAEVDAILANFGVQDQAMMEVLTGAAEPSGLLPMQMPAHMRTVEEQLEDVAHDMECHVDSEKHVYDFAFGMNWGGVIEDERTKRYRRS
notes: N-terminal His tag (pET-28a, BamHI/HindIII), E. coli BL21(DE3), Ni-NTA purified
B1 showed a Km [1] of 22.76 ± 1.33 µM, a kcat [1] of 46.18 s⁻¹ and a Km [2] of 79.59 ± 3.42 µM. For the same protein, the kcat [2] was 18.52 ± 0.28 s⁻¹.
